According to US7556938B1, “Nucleic acids encoding potassium channel interactors” (Millennium Pharmaceuticals, Inc., priority 1998, dated 2009):
Residue numbers refer to the chain shown, from its start.

B1: 8t: 8t polypeptide, splice variant of 9q (protein)
chain: MNRCPRRCRSPLGQAARSLYQLVTGSLSPDSVDDEFELSTVCHRPEGLEQLQEQTKFTRKELQVLYRGFKNECPSGIVNEENFKQIYSQFFPQGDSSTYATFLFNAFDTNHDGSVSFEDFVAGLSVILRGTVDDRLNWAFNLYDLNKDGCITKEEMLDIMKSIYDMMGKYTYPALREEAPREHVESFFQKMDRNKDGVVTIEEFIESCQKDENIMRSMQLFDNVI
B2: KChIP2m: KChIP2 splice variant m (protein)
chain: MRGQGRKESLSESRDLDGSYDQLTGHPPGPSKKALKQRFLKLLPCCGPQALPSVSENSVEDEFELSTVCHRPEGLEQLQEQTKFTRRELQVLYRGFKNECPSGIVNEENFKQIYSQFFPQGDSSNYATFLFNAFDTNHDGSVSFEDFVAGLSVILRGTIDDRLSWAFNLYDLNKDGCITKEEMLDIMKSIYDMMGKYTYPALREEAPREHVESFFQKMDRNKDGVVTIEEFIESCQQDENIMRSMQLFDNVI
B3: KChIP1l: KChIP1long splice variant of KChIP1 (protein)
chain: MGAVMGTFSSLQTKQRRPSKDIAWWYYQYQRDKIEDELEMTMVCHRPEGLEQLEAQTNFTKRELQVLYRGFKNECPSGVVNEDTFKQIYAQFFPHGDASTYAHYLFNAFDTTQTGSVKFEDFVTALSILLRGTVHEKLRWTFNLYDINKDGYINKEEMMDIVKAIYDMMGKYTYPVLKEDTPRQHVDVFFQKMDKNKDGIVTLDEFLESCQEDDNIMRSLQLFQNVM
B4: KChIP1N: N-terminal splice variant of KChIP1 (protein)
chain: MWAEGESEGLQTLGIVVVVCSSLKLLHYLGLIDLSDDKIEDELEMTMVCHRPEGLEQLEAQTNFTKRELQVLYRGFKNECPSGVVNEDTFKQIYAQFFPHGDASTYAHYLFNAFDTTQTGSVKFEDFVTALSILLRGTVHEKLRWTFNLYDINKDGYINKEEMMDIVKAIYDMMGKYTYPVLKEDTPRQHVDVFFQKMDKNKDGIVTLDEFLESCQEDDNIMRSLQLFQNVM
B5: KChIP4N2: N-terminal splice variant of KChIP4 (protein)
chain: MNLEGLEMIAVLIVIVLFVKLLEQFGLIEAGLEDSVEDELEMATVRHRPEALELLEAQSKFTKKELQILYRGFKNECPSGVVNEETFKEIYSQFFPQGDSTTYAHFLFNAFDTDHNGAVSFEDFIKGLSILLRGTVQEKLNWAFNLYDINKDGYITKEEMLDIMKAIYDMMGKCTYPVLKEDAPRQHVETFFQKMDKNKDGVVTIDEFIESCQKDENIMRSMQLFENVI
B6: KChIP4N1: KChIP4 splice variant KChIP4a (protein)
chain: MLTLEWESEGLQTVGIVVIICASLKLLHLLGLIDFSEDSVEDELEMATVRHRPEALELLEAQSKFTKKELQILYRGFKNECPSGVVNEETFKEIYSQFFPQGDSTTYAHFLFNAFDTDHNGAVSFEDFIKGLSILLRGTVQEKLNWAFNLYDINKDGYITKEEMLDIMKAIYDMMGKCTYPVLKEDAPRQHVETFFQKMDKNKDGVVTIDEFIESCQKDENIMRSMQLFENVI
B7: KChIP4N3: KChIP4 splice variant KChIP4d (protein)
chain: MNVRRVESISAQLEEASSTGGFLYAQNSTKRSIKERLMKLLPCSAAKTSSPAIQNSVEDELEMATVRHRPEALELLEAQSKFTKKELQILYRGFKNECPSGVVNEETFKEIYSQFFPQGDSTTYAHFLFNAFDTDHNGAVSFEDFIKGLSILLRGTVQEKLNWAFNLYDINKDGYITKEEMLDIMKAIYDMMGKCTYPVLKEDAPRQHVETFFQKMDKNKDGVVTIDEFIESCQKDENIMRSMQLFENVI
B8: KChIP2l: KChIP2 splice variant, rat KChIP2l (protein)
chain: MRGQGRKESLSESRDLDGSYDQLTGHPPGPSKKALKQRFLKLLPCCGPQALPSVSETLAAPASLRPHRPRPLDPDSVEDEFELSTVCHRPEGLEQLQEQTKFTRRELQVLYRGFKNECPSGIVNEENFKQIYSQFFPQGDSSNYATFLFNAFDTNHDGSVSFEDFVAGLSVILRGTIDDRLSWAFNLYDLNKDGCITKEEMLDIMKSIYDMMGKYTYPALREEAPREHVESFFQKMDRNKDGVVTIEEFIESCQQDENIMRSMQLFDNVI
B9: KChIP2s: KChIP2 splice variant, human KChIP2s (protein)
chain: MRGQGRKESLSDSRDLDGSYDQLTDSVDDEFELSTVCHRPEGLEQLQEQTKFTRKELQVLYRGFKNECPSGIVNEENFKQIYSQFFPQGDSSTYATFLFNAFDTNHDGSVSFEDFVAGLSVILRGTVDDRLNWAFNLYDLNKDGCITKEEMLDIMKSIYDMMGKYTYPALREEAPREHVESFFQKMDRNKDGVVTIEEFIESCQKDENIMRSMQLFDNVI
B10: KChIP2C: KChIP2 splice variant, rat KChIP2C (protein)
chain: B2 chain with F248S, D249P, N250L, V251L, I252N

Legend:
rKv4.3N = target: T1, rKv4.3N (Rattus norvegicus, UniProt Q62897); assay: Yeast two-hybrid binding and specificity test, Kv4.3 N-terminal bait
T1 construct: expressed in transfected cells; host or cells: yeast HF7c (bait), mated with Y187 (fish)
T1 sequence (Q62897 1-180): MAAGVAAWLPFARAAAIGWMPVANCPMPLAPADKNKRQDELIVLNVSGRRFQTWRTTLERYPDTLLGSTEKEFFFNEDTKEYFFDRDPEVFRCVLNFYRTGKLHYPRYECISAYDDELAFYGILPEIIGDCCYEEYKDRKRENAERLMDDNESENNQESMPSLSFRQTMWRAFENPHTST
Experimental: The first 180 amino acids of rKv4.3 (described in Serdio P. et al. (1996) J. Neurophys 75:2174-2179) were amplified by PCR and cloned in frame into pGBT9 resulting in plasmid pFWA2, (hereinafter “bait”). This bait was transformed into the two-hybrid screening strain HF7c and tested for expression and self-activation. The bait was validated for expression by Western blotting.
Two-hybrid screens were carried out essentially as described in Bartel, P. et al. (1993) “Using the Two-Hybrid System to Detect Polypeptide-Polypeptide Interactions” in Cellular Interactions in Development: A Practical Approach, Hartley, D. A. ed. Oxford University Press, Oxford, pp. 153-179, with a bait-library pair of rkv4.3 bait-rat mid brain library. A filter disk beta-galactosidase (beta-gal) assay was performed essentially as previously described (Brill et al. (1994) Mol. Biol. Cell. 5:297-312). Clones that were positive for both reporter gene activity (His and beta-galactosidase) were scored and fish, plasmids were isolated from yeast, transformed into E. coli strain KC8, DNA plasmids were purified and the resulting plasmids were sequenced by conventional methods (Sanger F. et al. (1977) PNAS, 74: 5463-67).
Positive interactor clones were subjected to a binding specificity test where they were exposed to a panel of related and unrelated baits by a mating scheme previously described (Finley R. L. Jr. et al. (1994) PNAS, 91(26):12980-12984). Briefly, positive fish plasmids were transformed into Y187 and the panel of baits were transformed into HF7c. Transformed fish and bait cells were streaked out as stripes on selective medium plates, mated on YPAD plates, and tested for reporter gene activity.

rKv4.3 = assay: Two-electrode voltage clamp of Kv4.3 currents in Xenopus oocytes co-injected with KChIP cRNA; type: cell-based, rat; conditions: for fold increase of inactivation time constant of Kv4.3: versus Kv4.3 alone; for effect on Kv4.3 current: co-injected with Kv4.3 cRNA
Sequence of rKv4.3 (Q62897 1-487 limits assumed): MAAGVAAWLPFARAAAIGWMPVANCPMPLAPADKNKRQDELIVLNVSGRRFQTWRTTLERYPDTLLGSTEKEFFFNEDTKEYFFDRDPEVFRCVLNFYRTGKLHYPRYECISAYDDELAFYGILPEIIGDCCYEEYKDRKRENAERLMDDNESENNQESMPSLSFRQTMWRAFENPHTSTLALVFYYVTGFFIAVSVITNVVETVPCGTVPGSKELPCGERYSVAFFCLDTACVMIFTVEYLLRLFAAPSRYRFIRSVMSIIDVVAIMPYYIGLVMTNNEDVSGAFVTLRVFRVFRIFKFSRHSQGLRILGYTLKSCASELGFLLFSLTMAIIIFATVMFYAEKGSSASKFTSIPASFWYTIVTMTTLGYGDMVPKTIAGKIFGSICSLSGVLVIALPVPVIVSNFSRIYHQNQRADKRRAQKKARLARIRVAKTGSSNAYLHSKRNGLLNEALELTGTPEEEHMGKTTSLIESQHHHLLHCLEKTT
Experimental: Frogs underwent no more than two surgeries and surgeries were performed by well established techniques. Frogs were anesthetized with ice. Total cRNA (1-10 ng) was injected into stage IV Xenopus oocytes that were harvested the previous day. The Xenopus oocytes were incubated in ND96 containing (in mM) 96 NaCl, 2 KCl, 1.8 CaCl2, 1 MgCl2, 5 HEPES, pH 7.6, plus (Gentamycin 50 μg/ml) at 18° C. Xenopus oocytes were studied 3-7 days after injection. The two-electrode voltage-clamp recordings were performed in ND96 solution using a TURBO TEC 03 Clamp Amplifier (ALA Scientific Instruments, Westbury, N.Y.). Both electrodes were filled with 3 M KCl and had electrode resistances ranging from 0.2-1 MOhm. The current signals were filtered at 1000 Hz before transferred on a PC (Gateway, Calif.) using the PULSE software (HEKA, Germany).
To investigate whether the modulatory effects of these KChIPs are specific for Kv4 channels, KChIP1 was coexpressed with Kv1.4 and Kv2.1 in Xenopus oocytes. Xenopus oocytes were injected with 1-3 ng/oocyte of cRNA which was prepared using standard in vitro transcription techniques (Sambrook et al. 1989. Molecular Cloning: a laboratory manual, Cold Spring Harbor Press). Currents in Xenopus oocytes were measured with a two-electrode voltage clamp. […] As a final control for the KChIP effects and to verify that the KChIPs' effects on Kv4 currents are independent of expression system, the above kinetic analyses were repeated after expressing Kv4.3 and KChIP mRNAs in Xenopus oocytes. The effects KChIP1 on for Kv4.3 in the Xenopus oocyte system were strikingly similar to those on Kv4.2 in CHO cells (Table 1).

[1] = Kv4.3 co-expressed with the KChIP

Row | Molecule | Inactivation time constant (ms ± SEM) (rKv4.3; [1]) [ms] | Peak amplitude (μA ± SEM) (rKv4.3; [1]) [μA] | effect on Kv4.3 current (rKv4.3) | also measured
1 | B1 |  |  |  | binding to rKv4.3N in yeast two-hybrid assay (rKv4.3N): able to bind to the Kv4.3 polypeptide
2 | B2 | 70 ± 2 | 40 ± 4 |  | binding to rKv4.3N in yeast two-hybrid assay (rKv4.3N): able to bind to the Kv4.3 polypeptide
3 | B3 | 100 ± 8 | 55±7 |  | fold increase of inactivation time constant of Kv4.3 (rKv4.3): ~2 fold
4 | B4 | 1778 ± 136 | 18±3 | did not affect peak amplitude of Kv4.3 | fold increase of inactivation time constant of Kv4.3 (rKv4.3): 32 fold
5 | B5 |  |  |  | Peak amplitude (μA ± SEM) (rKv4.3; KChIP4N2 cRNA 1× (stock)): 0 ± 0 μA; Peak amplitude (μA ± SEM) (rKv4.3; KChIP4N2 cRNA diluted 5×): 4 ± 1 μA; Inactivation time constant (ms ± SEM) (rKv4.3; KChIP4N2 cRNA diluted 30×): 681 ± 28 ms; Peak amplitude (μA ± SEM) (rKv4.3; KChIP4N2 cRNA diluted 30×): 25 ± 2 μA; Inactivation time constant (ms ± SEM) (rKv4.3; KChIP4N2 cRNA diluted 120×): 193 ± 13 ms; Peak amplitude (μA ± SEM) (rKv4.3; KChIP4N2 cRNA diluted 120×): 16 ± 3 μA; Inactivation time constant (ms ± SEM) (rKv4.3; KChIP4N2 cRNA diluted 500×): 84 ± 5 ms; Peak amplitude (μA ± SEM) (rKv4.3; KChIP4N2 cRNA diluted 500×): 9 ± 4 μA; effect on inactivation kinetics of Kv4.3 (rKv4.3; high concentrations of KChIP4N2 (e.g. 5× dilution of stock)): converted the fast-inactivating Kv4.3 current into an almost non-inactivating current
6 | B6 | 112 ± 7 | 6 ± 1 | statistically had no significant (ns) effect on Kv4.3 amplitude | 
7 | B7 | 85 ± 4 | 43 ± 4 | increased the peak amplitude of Kv4.3 | 
8 | B8 | 87 ± 4 | 51 ± 4 |  | 
9 | B9 | 90 ± 3 | 44 ± 3 |  | 
10 | B10 | 74 ± 4 | 44 ± 5 |  | 
